Consider three molecules from patent US6548290 (Harvard, dated 2003).

In data set [1] the test system is T1, Xenopus Geminin-H, translated in vitro.
T1 sequence: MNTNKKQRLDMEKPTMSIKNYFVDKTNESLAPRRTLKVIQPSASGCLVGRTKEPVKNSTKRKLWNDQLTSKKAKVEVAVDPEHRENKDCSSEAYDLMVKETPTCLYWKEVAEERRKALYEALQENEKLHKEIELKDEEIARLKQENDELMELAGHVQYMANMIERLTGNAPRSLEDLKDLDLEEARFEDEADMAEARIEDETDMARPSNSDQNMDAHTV

The test system of data set [2] is T2, geminin^DEL (geminin H with the nine amino acids of the destruction box RRTLKVIQP, 33-41, removed), translated in vitro.
T2 sequence: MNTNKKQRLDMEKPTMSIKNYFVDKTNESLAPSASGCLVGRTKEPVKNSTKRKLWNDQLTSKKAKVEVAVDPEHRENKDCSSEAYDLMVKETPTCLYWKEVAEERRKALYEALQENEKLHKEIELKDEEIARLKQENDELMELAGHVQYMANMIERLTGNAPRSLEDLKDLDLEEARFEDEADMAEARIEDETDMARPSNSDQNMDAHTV

A further data set has as its target T3, Xmcm3 (Xenopus, UniProt P49739 1-807).
T3 sequence (looked up): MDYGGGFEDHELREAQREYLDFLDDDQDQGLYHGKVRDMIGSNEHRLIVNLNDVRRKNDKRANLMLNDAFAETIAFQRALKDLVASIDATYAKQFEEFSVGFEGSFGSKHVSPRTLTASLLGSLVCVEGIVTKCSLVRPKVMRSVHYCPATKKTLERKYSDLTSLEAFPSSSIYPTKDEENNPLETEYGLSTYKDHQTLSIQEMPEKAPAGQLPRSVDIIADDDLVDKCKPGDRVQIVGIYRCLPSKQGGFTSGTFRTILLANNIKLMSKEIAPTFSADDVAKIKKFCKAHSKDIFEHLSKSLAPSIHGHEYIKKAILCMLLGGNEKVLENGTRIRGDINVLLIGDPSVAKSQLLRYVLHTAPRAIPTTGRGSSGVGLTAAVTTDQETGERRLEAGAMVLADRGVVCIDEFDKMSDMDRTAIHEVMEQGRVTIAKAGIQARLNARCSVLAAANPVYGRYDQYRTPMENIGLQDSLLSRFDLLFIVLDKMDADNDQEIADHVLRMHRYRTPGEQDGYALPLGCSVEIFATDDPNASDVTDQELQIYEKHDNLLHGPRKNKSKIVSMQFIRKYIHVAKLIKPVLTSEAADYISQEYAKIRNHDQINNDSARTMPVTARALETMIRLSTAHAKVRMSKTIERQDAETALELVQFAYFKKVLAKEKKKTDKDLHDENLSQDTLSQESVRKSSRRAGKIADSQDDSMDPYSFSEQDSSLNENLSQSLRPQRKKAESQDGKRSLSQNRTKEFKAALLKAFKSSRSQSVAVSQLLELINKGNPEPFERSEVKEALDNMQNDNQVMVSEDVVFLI
In words: co-immunoprecipitation (preliminary experiments).

The next data set concerns the target T4, Xorc2 (Xenopus, UniProt Q91628 1-558).
T4 sequence (looked up): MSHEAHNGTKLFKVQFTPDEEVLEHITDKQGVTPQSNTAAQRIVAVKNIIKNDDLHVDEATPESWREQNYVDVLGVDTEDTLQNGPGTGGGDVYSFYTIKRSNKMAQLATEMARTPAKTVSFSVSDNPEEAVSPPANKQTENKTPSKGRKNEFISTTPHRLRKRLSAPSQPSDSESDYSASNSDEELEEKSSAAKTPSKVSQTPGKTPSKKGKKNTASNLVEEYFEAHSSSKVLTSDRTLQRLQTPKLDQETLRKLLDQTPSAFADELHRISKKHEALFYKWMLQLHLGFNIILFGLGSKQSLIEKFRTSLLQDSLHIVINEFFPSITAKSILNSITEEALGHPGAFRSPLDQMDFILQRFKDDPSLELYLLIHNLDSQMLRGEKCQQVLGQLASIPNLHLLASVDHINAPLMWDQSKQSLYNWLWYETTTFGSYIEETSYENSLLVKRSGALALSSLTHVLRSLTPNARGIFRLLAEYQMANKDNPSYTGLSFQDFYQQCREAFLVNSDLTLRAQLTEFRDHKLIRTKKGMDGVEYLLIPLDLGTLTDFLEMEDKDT
Description: co-immunoprecipitation (preliminary experiments).

As for “interphase APC (immunoprecipitated from interphase Xenopus egg extract)”, the “ubiquitin conjugates (ladder on autoradiogram) in a reconstituted ubiquitination reaction” value in data set [1] is recorded as “The ladder did not appear ... if the APC was immunoprecipitated from interphase extracts (lane 7)”.

With “mitotic anaphase promoting complex (APC) of Xenopus mitotic egg extract”, the “ubiquitin conjugates (ladder on autoradiogram) in a reconstituted ubiquitination reaction” value in data set [1] is given as “a characteristic ladder of ubiquitin conjugates appeared above the starting material”; in data set [2] it was “The ladder did not appear if the destruction box mutant geminin^DEL was used as the substrate”.

B1: geminin (Xenopus; as used in the co-immunoprecipitation experiments) (other)
chain: T1 sequence
As to B1, the binding result with Xmcm3 and with Xorc2 was “no binding” throughout.
